In publication PMC5367257 (RNA Biology, 2017):

B1: His-eIF4G-N (truncated human eIF4GI, amino acids 42–653, with the PABP- and eIF4E-binding sites) (domain or fragment)
chain: NTPSQPRQHFYPSRAQPPSSAASRVQSAAPARPGPAAHVYPAGSQVMMIPSQISYPASQGAYYIPGQGRSTYVVPTQQYPVQPGAPGFYPGASPTEFGTYAGAYYPAQGVQQFPTGVAPTPVLMNQPPQIAPKRERKTIRIRDPNQGGKDITEEIMSGARTASTPTPPQTGGGLEPQANGETPQVAVIVRPDDRSQGAIIADRPGLPGPEHSPSESQPSSPSPTPSPSPVLEPGSEPNLAVLSIPGDTMTTIQMSVEESTPISRETGEPYRLSPEPTPLAEPILEVEVTLSKPVPESEFSSSPLQAPTPLASHTVEIHEPNGMVPSEDLEPEVESSPELAPPPACPSESPVPIAPTAQPEELLNGAPSPPAVDLSPVSEPEEQAKEVTASMAPPTIPSATPATAPSATSPAQEEEMEEEEEEEEGEAGEAGEAESEKGGEELLPPESTPIPANLSQNLEAAAATQVAVSVPKRRRKIKELNKKEAVGDLLDAFKEANPAVPEVENQPPAGSNPGPESEGSGVPPRPEEADETWDSKEDKIHNAENIQPGEQKYEYKSDQWKPLNLEEKKRYDREFLLGFQFIFASMQKPEGLPHISDVVLDKANKTPLRPLD

Assays:
[1] = target: His-PABP-Flag (wild-type full-length human poly(A)-binding protein) (human, UniProt P11940 1-636); test: pull-down
PABP 2-3 mt = PABP 2-3 mt (human, UniProt P11940 1-175+=[…]+190-636, internal_change); test: EMSA
WT PABP = WT PABP (human, UniProt P11940 1-636); test: EMSA

Row | Binder | fold increase of binding with eIF4E against without eIF4E [1] [fold] | Kd (PABP 2-3 mt) [nM] | Kd (WT PABP) [nM]
1 | B1 | ~3 | – | –
2 | AAAAAAAAAAAAAAAAAAAAAAAAA (ssRNA) [poly(A)25 RNA] | – | ~6.9 | ~5.9
